Where two headings read alike, the source gives them in different places.
Columns and labels:
[1] = target: S100A4 (wild type, full-length) (UniProt P26447); assay: fluorescence polarisation; competition: displacement of F-M16^N (5 μM) from S100A4 (5 μM) by increasing M32 or M16^N, with Ca2+; fit to a competitive single-site model with Kd of F-M16^N fixed at 2 μM
[2] = target: S100A4 (wild type, full-length) (UniProt P26447); assay: fluorescence polarisation + other: stopped-flow fluorescence; K2 with Ca2+: anisotropy value corrected for the 35% quench of fluorescein, identical with k-2/k2 of the stopped-flow records; per S100A4 monomer
[3] = target: S100A4 (wild type, full-length) (UniProt P26447); assay: fluorescence polarisation; as a1 but without Ca2+: EGTA added to 1 mM at the end of the titration
[4] = target: S100A4 (wild type, full-length) (UniProt P26447); assay: stopped-flow fluorescence; 0.1 μM F-M16^N mixed with S100A4, fluorescein emission intensity, with Ca2+; kobs against [S100A4]; dissociation also by displacement with excess M32
[5] = target: S100A4 (wild type, full-length) (UniProt P26447); assay: fluorescence polarisation; fluorescein anisotropy; 0.1 μM F-M16^N titrated with S100A4; 20 mM NaCl, 10 mM Hepes, 1 mM Mg2+, 100 μM Ca2+, pH 7.5, 20 °C; apparent; 1:1 binding per S100A4 monomer assumed
[6] = target: S100A4 (wild type, full-length) (UniProt P26447); assay: stopped-flow fluorescence; 0.1 μM F-M16^N mixed with S100A4, fluorescein emission intensity, with Ca2+; kobs against [S100A4]; dissociation also by displacement with excess M32; remark: listed apart in the source

Chain of S100A4 (wild type, full-length) (P26447 whole entry): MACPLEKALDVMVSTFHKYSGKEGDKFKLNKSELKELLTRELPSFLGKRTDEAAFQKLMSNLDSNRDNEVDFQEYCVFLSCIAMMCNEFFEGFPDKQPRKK

Substance	Kd [1]	Kd [2]	Kd [3]	koff [4]	kon [4]	Kd [5]	koff [6]
M16^N myosin peptide (NM-MHC IIA D1908-R1923) (from UniProt P35579-1 1908-1923)	> 100000 nM	–	–	–	–	–	–
F-M16^N, fluorescein-labelled M16^N myosin peptide (NM-MHC IIA D1908-R1923) (from UniProt P35579-1 1908-1923)	–	1300 nM	> 300000 nM	6.2 s⁻¹	4.9e+06 M⁻¹ s⁻¹	2000 nM	7.7 s⁻¹

— article PMC3025356, “Mechanism of the Ca^2+-Dependent Interaction between S100A4 and Tail Fragments of Nonmuscle Myosin Heavy Chain IIA” (Journal of Molecular Biology, 2011)
